B1: Partner and localizer of BRCA2 (Mus musculus), Q3U0P1 (parent)
chain: MEELSGKPLSYAEKEKLKEKLAFLKKEYSRTLARLQRAKRAEKAKNSKKAIEDGVPQPEASSQLSHSESINKGFPCDTLQSNHLDEETGENISQILDVEPQSFNCKQGKEVLHTPRAGDIQGQLLHSTSSPDGKKEQNTLPGTTKTPWEKSSVSQEKEDYFDTNSLALLGKHRKGQESISRKNSRTPVSEKTHLLSLRSQIPDPPALVTGIGEGILIPPSGKSERGIDTLVRGNTVSAEAAVPSCTASNSNHSQHLEHTPPKSGCKITTQGPASSTNLVAQDQKMTIFTVNSVVYKAVRAHGQLPGSPNSCSVNDLTHSNLPANSTPNSKSLKSPSNTVDERNEPLQEDEILGPSKNFNLAAVSPPSTESQIHSCTMLEGLLFPAEYYVRTTRRMSDCQRKIALEAVIQSHLGVKKKELKKKTKATKAVVLSSEDTDQSESGMLDTSTGQSSSGSLSQKLLSPAEVSSPPGPAGKATTPPPGRGHRGKRKSARTSTLGHCQLLFPPCAALAVNRSKGKFTKHKCQNRGVVIHDFELPDEDFGLLKLEKLKSCSEKLIESPDSKNCGERLPREGNHAALEELQRDSETEGLEEELTVPPGEAYRPGPTLRRQPGSKDLSSSIVLFTPADTAAPNDSGRPPPSLCSPAFPILGMTPALGSQAAGETLSTEAAQPCSTSQPPLLGDTNSLVNNSKQCNSSACSPKPDTNLQASGRQGQPACDSDSGPQATPLPVESFTFRENQLCGNACLELHEHSTEQTETADRPACDNLNPGNLQLVSELKNPSSSCSVDVSAMWWERAGAKEPCIVTACEDVVSLWKPLNSLQWEKVHTWHFTEVPVLQIVPVPDVYNLICVALGSLEIREIRALLCSSGDDSEKQVLLKSGDIKAMLGLTKRRLVSSTGTFCNQQIQIMTFADDGSSKDEQLLMPPDETVLTFAEVQGTQEALLGTTTVNSIVIWNLKTGQLLKKMHIDDSYQASVCHGAYSEKGLLFVVVSQPCAKESQALGSPVFQLLVINPKTAQSVGVLLCSLPQGQAGRFLEGDVKDHVAAAVLTSGTIAIWDLLLGHCTALLPPVSDQSWSLVKWSGTDSHLLAGQKDGNIFIYRYF

Variants of: B1
Conditions: with brca1_human BRCA1, P38398
Chain of brca1_human BRCA1, P38398 (P38398 whole entry, looked up): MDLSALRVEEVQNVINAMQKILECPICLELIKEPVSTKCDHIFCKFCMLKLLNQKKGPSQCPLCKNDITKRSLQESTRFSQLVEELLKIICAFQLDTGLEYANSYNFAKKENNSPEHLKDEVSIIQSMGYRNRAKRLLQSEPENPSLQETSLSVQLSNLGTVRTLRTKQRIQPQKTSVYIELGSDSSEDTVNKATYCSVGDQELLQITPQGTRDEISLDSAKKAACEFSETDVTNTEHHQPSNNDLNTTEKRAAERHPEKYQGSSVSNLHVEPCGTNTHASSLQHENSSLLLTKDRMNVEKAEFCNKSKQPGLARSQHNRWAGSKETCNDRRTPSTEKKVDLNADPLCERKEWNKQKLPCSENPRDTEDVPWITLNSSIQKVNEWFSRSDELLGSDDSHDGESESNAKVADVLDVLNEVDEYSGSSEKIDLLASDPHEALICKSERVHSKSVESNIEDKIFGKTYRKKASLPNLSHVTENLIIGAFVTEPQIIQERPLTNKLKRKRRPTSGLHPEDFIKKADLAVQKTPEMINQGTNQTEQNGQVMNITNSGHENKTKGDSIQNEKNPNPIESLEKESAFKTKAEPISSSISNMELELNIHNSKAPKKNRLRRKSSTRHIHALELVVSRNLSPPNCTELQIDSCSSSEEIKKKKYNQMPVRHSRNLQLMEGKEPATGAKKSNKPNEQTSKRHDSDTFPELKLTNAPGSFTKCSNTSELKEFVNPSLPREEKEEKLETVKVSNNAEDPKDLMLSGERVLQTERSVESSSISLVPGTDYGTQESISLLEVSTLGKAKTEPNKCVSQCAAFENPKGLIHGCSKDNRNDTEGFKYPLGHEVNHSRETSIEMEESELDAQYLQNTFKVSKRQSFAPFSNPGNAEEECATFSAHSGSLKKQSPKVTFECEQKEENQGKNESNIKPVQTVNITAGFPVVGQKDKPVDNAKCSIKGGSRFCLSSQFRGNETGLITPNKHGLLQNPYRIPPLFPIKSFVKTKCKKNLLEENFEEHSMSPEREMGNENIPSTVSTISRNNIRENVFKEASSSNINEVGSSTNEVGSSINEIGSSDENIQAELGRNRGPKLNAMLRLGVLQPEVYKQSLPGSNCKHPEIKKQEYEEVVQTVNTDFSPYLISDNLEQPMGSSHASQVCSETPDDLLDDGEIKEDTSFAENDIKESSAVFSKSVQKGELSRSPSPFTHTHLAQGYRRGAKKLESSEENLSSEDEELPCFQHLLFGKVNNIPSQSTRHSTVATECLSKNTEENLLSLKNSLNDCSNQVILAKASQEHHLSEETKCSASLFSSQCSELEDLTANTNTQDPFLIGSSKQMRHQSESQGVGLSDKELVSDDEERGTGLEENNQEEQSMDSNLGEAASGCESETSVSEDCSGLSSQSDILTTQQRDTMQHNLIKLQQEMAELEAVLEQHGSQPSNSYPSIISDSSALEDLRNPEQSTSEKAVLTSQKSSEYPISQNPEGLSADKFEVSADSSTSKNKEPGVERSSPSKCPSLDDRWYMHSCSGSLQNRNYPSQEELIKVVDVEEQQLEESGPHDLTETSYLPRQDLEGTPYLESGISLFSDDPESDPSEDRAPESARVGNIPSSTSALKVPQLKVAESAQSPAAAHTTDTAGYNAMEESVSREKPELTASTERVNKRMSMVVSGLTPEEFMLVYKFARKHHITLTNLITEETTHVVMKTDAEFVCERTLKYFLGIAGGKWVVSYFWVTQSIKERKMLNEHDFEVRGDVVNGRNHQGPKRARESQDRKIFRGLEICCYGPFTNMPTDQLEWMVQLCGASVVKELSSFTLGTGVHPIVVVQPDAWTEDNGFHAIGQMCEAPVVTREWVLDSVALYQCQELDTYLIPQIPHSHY

Variant | effect of a mutation on the interaction
R37H | with no effect
Y28C | disrupting interaction

More lines, now with the values ahead:

effect of a mutation on the interaction | Variant
disrupting interaction | L35P
with no effect | K18R
